According to patent US20210285024:

Legend:
[1] = test system: polymerized microtubules (MT)
[2] = test system: recombinant alpha tubulin produced in bacteria
[3] = test system: 8 amino acid peptide GEEEGEEY (last C-ter alpha-tubulin 1A/1B)
[4] = test system: tubulin purified from Spodoptera Frugiperda Sf9 cells (fully tyrosinated; used as purified tubulin or polymerised microtubules)
[5] = test system: recombinant engineered tyrosinated telokin containing the C-terminal sequence of alpha tubulin
recombinant engineered tyrosinated telokin containing the C-terminal sequence of alpha tubulin, sequence (chain, as listed by the source, change not shown): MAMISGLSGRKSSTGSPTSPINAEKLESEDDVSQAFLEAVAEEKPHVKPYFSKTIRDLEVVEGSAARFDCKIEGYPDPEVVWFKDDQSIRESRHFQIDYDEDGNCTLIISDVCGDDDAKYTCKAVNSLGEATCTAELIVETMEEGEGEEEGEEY

[6] = test system: bacterially produced recombinant human tubulin alpha-1A chain

recombinant human Vasohibin-1 (VASH1), sequence (chain, as listed by the source): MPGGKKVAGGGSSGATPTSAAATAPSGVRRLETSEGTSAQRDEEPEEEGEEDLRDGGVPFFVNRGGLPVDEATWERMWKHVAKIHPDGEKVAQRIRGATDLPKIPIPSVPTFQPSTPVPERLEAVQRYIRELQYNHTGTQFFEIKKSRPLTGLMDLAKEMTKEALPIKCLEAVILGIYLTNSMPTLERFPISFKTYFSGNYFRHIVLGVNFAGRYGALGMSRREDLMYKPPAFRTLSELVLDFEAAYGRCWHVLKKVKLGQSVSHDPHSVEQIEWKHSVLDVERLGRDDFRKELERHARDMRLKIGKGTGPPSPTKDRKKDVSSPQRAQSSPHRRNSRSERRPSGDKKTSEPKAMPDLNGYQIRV
recombinant human Vasohibin-2 (VASH2), sequence (chain, as listed by the source): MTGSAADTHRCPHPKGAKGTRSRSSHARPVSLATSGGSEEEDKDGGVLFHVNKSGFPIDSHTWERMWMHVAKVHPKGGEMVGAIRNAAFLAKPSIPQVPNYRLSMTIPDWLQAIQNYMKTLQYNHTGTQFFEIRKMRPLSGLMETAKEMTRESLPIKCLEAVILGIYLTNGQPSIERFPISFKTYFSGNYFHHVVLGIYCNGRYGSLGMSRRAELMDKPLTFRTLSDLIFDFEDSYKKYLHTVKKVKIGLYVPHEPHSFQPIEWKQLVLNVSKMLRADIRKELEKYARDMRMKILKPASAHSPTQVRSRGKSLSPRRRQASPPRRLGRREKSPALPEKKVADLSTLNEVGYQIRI

Substance	detyrosination [1]	detyrosination (tubulin dimers (TD))	detyrosination [2]	detyrosination of the peptide (dot blot) [3]	in vitro detyrosination assay (TCPase activity, immunoblot) [4]	detyrosination activity [5]	free tyrosine release (tyrosinase colorimetric assay, OD305) [6]
recombinant human Vasohibin-1 (VASH1)	VASH1 was much less effective on microtubules and tubulin dimers	VASH1 was much less effective on microtubules and tubulin dimers	almost inactive on recombinant alpha tubulin produced in bacteria	–	–	–	–
recombinant human Vasohibin-2 (VASH2)	Recombinant human VASH2 produced in bacteria detyrosinates polymerized microtubules (MT), tubulin dimers (TD) and recombinant alpha tubulin	Recombinant human VASH2 produced in bacteria detyrosinates polymerized microtubules (MT), tubulin dimers (TD) and recombinant alpha tubulin	Recombinant human VASH2 produced in bacteria detyrosinates polymerized microtubules (MT), tubulin dimers (TD) and recombinant alpha tubulin	Recombinant human VASH2 and catalytically dead (VASH2D) produced in bacteria detyrosinates a 8 amino acid peptide consisting of GEEEGEEY	VASH2 acted as an autonomous enzyme that did not require the small vasohibin binding protein as a chaperone to enzymatically be active	recombinant VASH2 protein showed detyrosination activity on polymerized microtubule, tubulin dimers, recombinant alpha tubulin, engineered Telokin protein containing C-terminal sequence of alpha tubulin and on synthetic peptides	Release of tyrosine by VASH2 could be observed (Sample D-FIG. 16.)
